The values below are quoted from earlier work in article PMC4454200.

What is called Kd is a measure of binding affinity in units of concentration.

For this series, the target named is Myosin-5a GTD (Mus musculus) (UniProt Q99104).
Chain of Myosin-5a GTD (Mus musculus) (Q99104 1469-1853): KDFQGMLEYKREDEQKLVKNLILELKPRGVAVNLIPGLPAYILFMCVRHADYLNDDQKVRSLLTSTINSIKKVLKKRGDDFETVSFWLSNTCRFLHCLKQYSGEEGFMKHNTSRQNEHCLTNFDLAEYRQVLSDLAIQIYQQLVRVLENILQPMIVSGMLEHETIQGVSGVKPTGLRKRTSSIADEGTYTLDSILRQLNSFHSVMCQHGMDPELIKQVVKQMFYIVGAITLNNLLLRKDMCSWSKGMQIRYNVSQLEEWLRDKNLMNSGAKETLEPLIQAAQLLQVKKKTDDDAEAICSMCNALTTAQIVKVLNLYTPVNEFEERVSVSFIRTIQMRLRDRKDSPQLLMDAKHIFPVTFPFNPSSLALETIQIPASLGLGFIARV

Chain of Melanophilin GTBDP (Q91V27 176-201): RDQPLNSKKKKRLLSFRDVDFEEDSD

Consider “Melanophilin GTBDP (from UniProt Q91V27)”, for which the Kd is 500 nM.
